Earlier results in PMC11497281.

Target: Asp27 (UniProt position 27, WNLPADLAWFK)

For “Dihydrofolate reductase (DHFR) (Escherichia coli)”, the pKa is listed as “approximately 6.5”.
